We go through 14 molecules from paper PMC10626543, “Native lamin A/C proteomes and novel partners from heart and skeletal muscle in a mouse chronic inflammation model of human frailty” (Frontiers in Cell and Developmental Biology, 2023).

The assay deals with T1, recombinant lamin A tail (residues 385–646 of human mature lamin A) (human, UniProt P02545 385-646).
T1 construct: lamin A, human, residues 385-646 of mature lamin A: flexible linker 385-429, Ig-fold 430-544, disordered 545-646; also called lamin A tails; LamA; not shown: His tag, C-terminal, kept
T1 sequence (looked up): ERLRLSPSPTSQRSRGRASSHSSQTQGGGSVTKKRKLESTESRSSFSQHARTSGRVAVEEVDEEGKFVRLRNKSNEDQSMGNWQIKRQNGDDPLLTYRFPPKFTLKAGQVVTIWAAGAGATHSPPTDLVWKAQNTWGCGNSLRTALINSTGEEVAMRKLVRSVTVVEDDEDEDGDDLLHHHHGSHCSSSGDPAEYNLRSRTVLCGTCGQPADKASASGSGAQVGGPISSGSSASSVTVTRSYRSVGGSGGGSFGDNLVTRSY
The experiment in a line: peptide or protein array; synthetic 20-mer peptides (7-residue offset) on cellulose; probed 3 h at room temperature with 190 nM His-tagged lamin A tail in casein blocking solution (TBS-T, sucrose, pH 7.0); bound lamin detected with anti-lamin A/C clone 14 and AP-conjugated secondary antibody; two experiments, each with an antibodies-only control. Conditions: both partners purified.

B1: AldoA peptide r20 (aa 309–328) (peptide)
peptide: SALKAWGGKKENLKAAQEEY
notes: AldoA, human, residues 309-328; source: synthetic peptide, on cellulose array
In the case of B1, the binding result is given as “binds”.

B2: prelamin A peptide X1 (aa 499–518) (peptide)
peptide: AAGAGATHSPPTDLVWKAQN
notes: prelamin A, human, residues 499-518 (Ig-fold); source: synthetic peptide, on cellulose array
Take B2: the binding result is recorded as “binds”.

B3: Lmcd1 peptide v17 (aa 309–328) (peptide)
peptide: SGCDEIIFAEDYQRVEDLAW
notes: Lmcd1, human, residues 309-328 (second LIM domain); source: synthetic peptide, on cellulose array
Take B3: the binding result is reported as “binds”.

B4: Perm1 peptide j2 (aa 737–756) (peptide)
peptide: FVAFATWAVRTSDPHTPDAW
notes: Perm1, human, residues 737-756; source: synthetic peptide, on cellulose array
In the case of B4, the binding result is “binds”.

B5: Tmem38A peptide j13 (aa 36–55) (peptide)
peptide: YLKYEPGAVELSRRHPIASW
notes: Tmem38a, human, residues 36-55; source: synthetic peptide, on cellulose array
Turning to B5, the binding result is recorded as “binds”.

B6: Perm1 peptide h16 (aa 529–548) (peptide)
peptide: QTATGAHGGPGAWEAVAVGP
notes: Perm1, human, residues 529-548; source: synthetic peptide, on cellulose array
With B6, the binding result is “binds”.

B7: Tmem38A peptide k10 (aa 155–174) (peptide)
peptide: KGSGVALMSNFEQLLRGVWK
notes: Tmem38a, human, residues 155-174; source: synthetic peptide, on cellulose array
Take B7: the binding result is recorded as “binds”.

B8: AldoA peptide r18 (aa 295–314) (peptide)
peptide: PWALTFSYGRALQASALKAW
notes: AldoA, human, residues 295-314; source: synthetic peptide, on cellulose array
On to B8, for which the binding result is “binds”.

B9: prelamin A peptide W14 (aa 450–469) (peptide)
peptide: KFVRLRNKSNEDQSMGNWQI
notes: prelamin A, human, residues 450-469 (Ig-fold); source: synthetic peptide, on cellulose array
B9: the binding result is recorded as “binds”.

B10: prelamin A peptide W19 (aa 485–504) (peptide)
peptide: PKFTLKAGQVVTIWAAGAGA
notes: prelamin A, human, residues 485-504 (Ig-fold); source: synthetic peptide, on cellulose array
Turning to B10, the binding result is recorded as “binds”.

B11: Perm1 peptide h5 (aa 441–460) (peptide)
peptide: SSGLVSTPVPRADAAGLAWP
notes: Perm1, human, residues 441-460; source: synthetic peptide, on cellulose array
As to B11, the binding result is reported as “binds”.

B12: Tmem38A peptide k16 (aa 197–216) (peptide)
peptide: FTLQQTRWLPVSKASLIFIF
notes: Tmem38a, human, residues 197-216; source: synthetic peptide, on cellulose array
On to B12, for which the binding result was “binds”.

B13: Perm1 peptide i4 (aa 593–612) (peptide)
peptide: EENEEAEAAAAGQDPAGVQW
notes: Perm1, human, residues 593-612; source: synthetic peptide, on cellulose array
Take B13: the binding result is reported as “binds”.

B14: AldoA peptide r19 (aa 302–321) (peptide)
peptide: YGRALQASALKAWGGKKENL
notes: AldoA, human, residues 302-321; source: synthetic peptide, on cellulose array
With B14, the binding result was “binds”.
